Consider eight molecules from publication PMC8250900.

The target of series [1] is T1, SARS-CoV spike extracellular domain (CoV-S) (SARS-CoV, UniProt P59594 14-1190). Description: flow cytometry.
Another series concerns the target SARS-CoV-2 spike RBD (SARS-CoV-2, UniProt P0DTC2 319-591). In words: flow cytometry. In general terms: In flow cytometry, cells or beads pass a laser one at a time.
Series [2] deals with T2, ACE2 extracellular domain (human, UniProt Q9BYF1 19-615). Description: flow cytometry.
T2 sequence (Q9BYF1 19-615): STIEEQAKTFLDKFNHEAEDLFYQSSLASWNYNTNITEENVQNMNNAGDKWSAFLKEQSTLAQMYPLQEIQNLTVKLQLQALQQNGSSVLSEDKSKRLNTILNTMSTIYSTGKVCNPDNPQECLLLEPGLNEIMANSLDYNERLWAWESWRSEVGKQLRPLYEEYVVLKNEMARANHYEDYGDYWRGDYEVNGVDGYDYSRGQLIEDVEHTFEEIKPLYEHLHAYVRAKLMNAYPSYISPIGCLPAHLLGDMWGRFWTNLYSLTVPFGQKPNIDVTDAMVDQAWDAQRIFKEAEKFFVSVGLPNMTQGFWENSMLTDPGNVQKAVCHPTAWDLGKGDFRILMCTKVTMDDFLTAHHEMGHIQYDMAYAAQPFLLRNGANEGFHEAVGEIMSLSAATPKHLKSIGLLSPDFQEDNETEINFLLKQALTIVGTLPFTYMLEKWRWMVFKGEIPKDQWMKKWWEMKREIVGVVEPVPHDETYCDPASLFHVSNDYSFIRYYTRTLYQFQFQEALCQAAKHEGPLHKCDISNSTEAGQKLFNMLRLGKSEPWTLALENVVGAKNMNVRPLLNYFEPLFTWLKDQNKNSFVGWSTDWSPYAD
Series [3] has as its target T1, SARS-CoV spike extracellular domain …. In words: pull-down.
For series [4], the target named is T2, ACE2 extracellular domain. Description: pull-down.
In a further series the target is Nek7 (human, UniProt Q8TDX7 1-302). Description: pull-down.
Sequence of Nek7 (Q8TDX7 whole entry): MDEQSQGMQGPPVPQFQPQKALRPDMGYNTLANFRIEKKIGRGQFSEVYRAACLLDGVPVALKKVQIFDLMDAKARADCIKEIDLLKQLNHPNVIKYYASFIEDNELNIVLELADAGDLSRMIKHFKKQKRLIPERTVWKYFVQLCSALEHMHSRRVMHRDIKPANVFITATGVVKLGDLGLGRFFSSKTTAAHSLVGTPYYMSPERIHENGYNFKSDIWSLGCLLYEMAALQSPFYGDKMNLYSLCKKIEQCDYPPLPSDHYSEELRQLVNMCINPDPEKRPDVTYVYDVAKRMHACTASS

B1: SP5 (ssDNA)
DNA: GGGAGAGGAGGGAGATAGATATCAACCATGGTAGGTATTGCTTGGTAGGGATAGTGGGCTTGATGTTTCGTGGATGCCACAGGAC
For the molecule B1, the binding result (in series [1]; with SARS-CoV-2 spike RBD; in series [2]) was “no binding” each time.

B2: RBD4 (ssDNA)
DNA: GGGAGAGGAGGGAGATAGATATCAATGGGTGGGAGGGAGGGGGGCTTTATTCCGGTGTTTTTTCGTTTCGTGGATGCCACAGGAC
For the molecule B2, in the series with SARS-CoV-2 spike RBD, the binding result is recorded as “binds”.

B3: SP7 (ssDNA)
DNA: GGGAGAGGAGGGAGATAGATATCAAAGGAGGGTAGGTAGTGCTTGGTAGGGAAACTCCGCCGATTTTTCGTGGATGCCACAGGAC
As for B3, the binding result (in series [1]; in the series with SARS-CoV-2 spike RBD; in series [2]) was “no binding” in each case.

B4: RBD1 (ssDNA)
DNA: GGGAGAGGAGGGAGATAGATATCAAGTTAGGTTCTGGATTAGGTTAGGGTTGTGTTGTTGTTAGGTTTCGTGGATGCCACAGGAC
Take B4: the binding result with SARS-CoV-2 spike RBD is listed as “binds”.

B5: SP6 (ssDNA)
DNA: GGGAGAGGAGGGAGATAGATATCAACCCATGGTAGGTATTGCTTGGTAGGGATAGTGGGCTTGATGTTTCGTGGATGCCACAGGAC
B5: the binding result (in series [1]; with SARS-CoV-2 spike RBD; in series [2]) was “no binding” each time.

B6: SP6 biotin (ssDNA)
DNA: B5 DNA
Take B6: the binding result (in series [3]; in series [4]; with Nek7) was “no binding” throughout.

B7: RBD2 (ssDNA)
DNA: GGGAGAGGAGGGAGATAGATATCAATACAGTTGGTTGTAGGTTTTTGTTAGGTTAGTTTAGGGTTTTTCGTGGATGCCACAGGAC
Regarding B7, the binding result with SARS-CoV-2 spike RBD was “binds”.

B8: RBD3 (ssDNA)
DNA: GGGAGAGGAGGGAGATAGATATCAATGGGTGTTTTGGTTGTAGGGTTTAGGTTTAGGGTACTCTTTTTCGTGGATGCCACAGGAC
Take B8: the binding result with SARS-CoV-2 spike RBD is “binds”.
